Measurements published in US11788108B2, “CMP-dependent sialidase activity” (Roche Diagnostics Operations, Inc., priority 2014, dated 2023).

Key:
Δ89 hST6Gal-I = biological target: T1, Δ89 hST6Gal-I (Homo sapiens, UniProt P15907); experiment: Inhibition of sialidase activity of Δ89 hST6Gal-I by CTP; format: biochemical
T1 construct: Erythropoietin signal peptide (Epo) (N, cleaved yes); AP spacer (N, cleaved yes); made in house; host or cells: HEK 293 cells (transient expression, secreted)
T1 sequence (P15907 90-406): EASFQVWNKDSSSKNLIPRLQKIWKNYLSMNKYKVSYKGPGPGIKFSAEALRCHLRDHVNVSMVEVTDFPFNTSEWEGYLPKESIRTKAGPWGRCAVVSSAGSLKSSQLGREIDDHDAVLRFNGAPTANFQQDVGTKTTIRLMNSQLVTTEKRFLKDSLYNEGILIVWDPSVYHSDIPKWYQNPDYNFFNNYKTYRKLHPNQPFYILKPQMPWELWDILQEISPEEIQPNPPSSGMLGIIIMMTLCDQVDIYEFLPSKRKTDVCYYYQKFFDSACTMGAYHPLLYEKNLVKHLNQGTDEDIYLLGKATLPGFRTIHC
Method: The compound cytidine-5′-triphosphate (CTP) is a known potent inhibitor of sialyltransferases (Scudder P R & Chantler E N BBA 660 (1981) 136-141). […] In the first phase of the experiment the sialylation of IgG4 MAB by Δ89 hST6Gal-I was performed to achieve a high content of G2+2SA (see Example 10). After 7 h of incubation the G2+2SA content was 94%. Subsequently, CTP was added to inhibit the sialidase activity of Δ89 hST6Gal-I (final concentration of CTP: 0.67 mM). At different times samples were taken and the content of G2+0SA, G2+1SA and G2+2SA was determined by mass spectrometry. […] After 72 h of incubation 73% of G2+2SA were still present.

[1] = biological target: T2, α-2,6-sialyltransferase from rat liver (Rattus norvegicus, UniProt P13721); conditions: each inhibitor at 0.25 mM; cited from earlier work
T2 construct: host or cells: rat liver
T2 sequence (P13721 1-403): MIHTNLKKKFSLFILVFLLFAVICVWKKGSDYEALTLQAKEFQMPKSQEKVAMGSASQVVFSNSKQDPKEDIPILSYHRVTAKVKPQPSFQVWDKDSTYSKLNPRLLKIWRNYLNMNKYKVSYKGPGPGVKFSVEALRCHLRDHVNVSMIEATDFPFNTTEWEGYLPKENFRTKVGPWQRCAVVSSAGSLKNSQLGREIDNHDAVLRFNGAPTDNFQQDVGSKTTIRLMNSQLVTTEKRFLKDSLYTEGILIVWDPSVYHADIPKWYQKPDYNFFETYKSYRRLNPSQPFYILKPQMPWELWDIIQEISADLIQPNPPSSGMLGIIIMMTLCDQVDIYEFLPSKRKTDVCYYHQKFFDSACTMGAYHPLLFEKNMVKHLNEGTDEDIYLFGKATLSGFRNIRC

asialofetuin = experiment: Test for sialyltransferase enzymatic activity (transfer of sialic acid from CMP-9-fluoro-NANA to asialofetuin); format: biochemical; conditions: recombinant enzyme purified from HEK cells
Method: Asialofetuin (desialylated fetuin, Roche Applied Science) was used as acceptor and CMP-9-fluoro-NANA (CMP-9-fluoresceinyl-NeuAc) was used as donor substrate (Brossmer, R. & Gross H. J. (1994) Meth. Enzymol. 247, 177-193). Enzymatic activity of a sialyltransferase was determined by measuring the transfer of sialic acid from the donor compound to asialofetuin. The reaction mix (35 mM MES, pH 6.0, 0.035% TRITON™ X-100 (C16H26O2), 0.07% BSA) contained 2.5 μg of enzyme sample, 5 μL asialofetuin (20 mg/mL) and 2 μL CMP-9-fluoro-NANA (1.0 mg/mL) in a total volume of 51 μL. The reaction mix was incubated at 37° C. for 30 min. The reaction was stopped by the addition of 10 μL of the inhibitor CTP (10 mM). The reaction mix was loaded onto a PD10 desalting column equilibrated with 0.1 M Tris/HCl, pH 8.5. Fetuin was eluted from the column using the equilibration buffer. The fractions size was 1 mL. The concentration of formed fetuin was determined using a fluorescence spectrophotometer. Excitation wave length was 490 nm, emission was measured at 520 nm. Enzymatic activity was expressed as RFU (relative fluorescence unit). 10,000 RFU/μg is equivalent to a specific activity of 0.0839 nmol/μg×min.

IgG1 MAB G2+2SA = experiment: Sialidase activity on IgG1 MAB G2+2SA in the presence and absence of CMP; format: biochemical; conditions: for sialidase activity in the presence of CMP: CMP 10-fold molar excess, 37° C., pH 6.5, 125 μg enzyme/1,250 μg IgG1 MAB
Method: Cytidine monophosphate (5′-CMP, =CMP) is a product of the reaction catalyzed by sialyltransferase enzymes, generated in the course of the glycosyltransferase reaction from the co-substrate CMP-NANA. With incubation time of a sialylation reaction CMP accumulates in the reaction mixture.
To an amount of 1,250 μg (in 194 μL) highly sialylated IgG1 MAB according to Example 12 with an incubation period for sialylation of 8 h, 125 μg sialyltransferase variant (30 μg/300 μg IgG1 MAB) was added.
Different N-terminally truncated hST6Gal-I enzyme variants were tested for CMP-dependent sialidase activity: • Δ89 hST6Gal-I (Example 9) • Δ108 hST6Gal-I (Example 9) • Δ57 hST3Gal-I (obtained from R&D Systems)
Four different experiments were made using Δ89 hST6Gal-I (16.8 μL with 125 μg), Δ108 hST6Gal-I (17.3 μL with 125 μg), Δ57 hST3Gal-I (20.1 μL with 125 μg) and a negative control (no enzyme, 20.1 μL ultrapure water). The enzymes were tested for sialidase activity in the absence and presence of CMP (10-fold excess based on molarity). The concentrations were as shown as follows:
The samples were incubated at 37° C. in 20 mM sodium citrate, 35 mM Tris pH 6.5. Aliquots were taken as samples after different incubation times, and were analyzed.
To analyze the degree of sialylation of IgG1 MAB in the samples, 124 μL denaturing buffer (6 M Guanidinium chloride in water) and 30 μL TCEP (=tris(2-carboxyethyl)phosphine; 0.1 mM, diluted in denaturing buffer) were added to 76 μL (corresponding to 250 μg IgG1 MAB) and the sample was incubated at 37° C. for 1 h. After that the sample was buffered in electrospray medium (20% ACN (=acetonitrile), 1% FA (=formamide)) using pre-equilibrated ILLUSTRA™ NAP™5-Columns (GE-Healthcare). Subsequently the sample was analyzed by electrospray ionization mass spectrometry and the content of G2+0SA, G2+1SA and G2+2SA N-glycans was determined. A Synapt G2 HDMS device (Waters UK) was used, the software used was MassLynx V 4.1.

IgG4 MAB = experiment: Sialylation of humanized monoclonal antibody IgG4 MAB using Δ89 hST6Gal-I, mass spectrometry; format: biochemical
Method: A highly galactosylated humanized monoclonal antibody IgG4 MAB was used in sialylation experiments. The reaction mixture contained IgG4 MAB (300 μg in 55 μL 35 mM sodium actetate/Tris buffer pH 7.0), the donor substrate CMP-NANA (150 μg in 50 μL water) and sialyltransferase (30 μg Δ89 hST6Gal-I in 20 mM potassium phosphate, 0.1 M NaCl, pH 6.5). The samples were incubated at 37° C. for a defined time. To stop the reaction the samples were frozen at −20° C. For mass analysis 100 μL denaturing buffer (6 M guanidinium chloride) and 30 μL TCEP (=tris(2-carboxyethyl)phosphine; 0.1 mM, diluted in denaturing buffer) were added to the samples and the samples were incubated at 37° C. for 1 h. The samples were buffered in electrospray medium [20% ACN (=acetonitrile), 1% FA (=formamide)] using pre-equilibrated Illustra™ Nap5-Columns (GE-Healthcare). Samples were analyzed by electrospray ionization mass spectrometry and the content of G2+0SA, G2+1SA and G2+2SA N-glycans was determined. A Micromass Q-Tof Ultima and a Synapt G2 HDMS device (Waters UK) were used, the software used was MassLynx V 4.1. To determine the kinetics of the sialylation the reaction was incubated up to 72 h.

[2] = biological target: T3, CMP-dependent sialidase activity of Δ89 hST6Gal-I (Homo sapiens, UniProt P15907); experiment: Sialylation of IgG4 MAB using Δ89 hST6Gal-I in the presence of phosphatase enzymatic activity; format: biochemical; conditions: CMP degraded by dephosphorylating enzymes
T3 construct: Erythropoietin signal peptide (Epo) (N, cleaved yes); AP spacer (N, cleaved yes); made in house; host or cells: HEK 293 cells (transient expression, secreted)
T3 sequence (P15907 90-406): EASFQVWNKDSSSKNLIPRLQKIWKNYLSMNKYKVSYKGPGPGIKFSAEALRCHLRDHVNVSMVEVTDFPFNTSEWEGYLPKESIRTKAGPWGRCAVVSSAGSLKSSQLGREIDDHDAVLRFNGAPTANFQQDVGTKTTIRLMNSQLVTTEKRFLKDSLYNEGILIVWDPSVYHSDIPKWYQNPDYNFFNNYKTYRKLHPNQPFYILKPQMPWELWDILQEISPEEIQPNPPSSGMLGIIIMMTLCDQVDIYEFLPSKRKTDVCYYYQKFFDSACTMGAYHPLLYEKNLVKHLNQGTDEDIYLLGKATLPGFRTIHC
Source text: Suppression of CMP-dependent sialidase activity of Δ89 hST6Gal-I was studied by continuous removal of CMP formed during the reaction.
In the experiments the enzymes (i) 5′-nucleotidase (EC 3.1.3.5) having a wide specificity for 5′-nucleotides, and (ii) alkaline phosphatase (EC 3.1.3.1) (both provided by commercial suppliers) were used. The particular 5′-nucleotidase used here is also known as ecto-5′-nucleotidase or CD73 (Cluster of Differentiation 73), in humans encoded by the NT5E gene. Both enzymes dephosphorylate CMP, i.e. catalyze hydrolysis of the phosphoester bond in CMP. In the experiments of this Example the enzymes were used to degrade CMP generated by the sialyltransferase reaction from the co-substrate CMP-NANA.
To 1,000 μg IgG4 MAB (182 μL) 500 μg CMP-NANA (3 mg/mL, 166.7 μL), 100 μg Δ89 hST6Gal-I (13.4 μL, 30 μg/300 μg IgG4 MAB) and different amounts of nucleotidase (Nu) and alkaline phosphatase (AP) were added. As Zn^2+ ions are essential for the activity of AP, these were added to a final concentration of 0.1 mM). The buffer used was 20 mM sodium acetate/Tris, pH 6.5. […]
After addition of the respective amounts of enzymes the samples were incubated at 37° C. […] Then the sample was analyzed by electrospray ionization mass spectrometry, and the content of G2+0SA, G2+1SA and G2+2SA N-glycans was determined. […]

Molecule: Nc1ccn([C@@H]2O[C@H](COP(=O)(O)OP(=O)(O)OP(=O)(O)O)[C@@H](O)[C@H]2O)c(=O)n1 [CTP, cytidine-5′-triphosphate]
- degradation of G2+2SA caused by the sialidase activity (Δ89 hST6Gal-I; CTP 0.67 mM, compared to inhibitor-free conditions): significantly reduced
- G2+2SA still present (Δ89 hST6Gal-I; after 72 h of incubation, CTP final concentration 0.67 mM added after 7 h): 73%

Molecule: Nc1ccn([C@@H]2O[C@H](CO)[C@@H](OP(=O)(O)O)[C@H]2O)c(=O)n1 [3′-CMP]
- inhibition of α-2,6-sialyltransferase [1]: 39%

Molecule: Nc1ccn([C@@H]2O[C@H](CO)[C@@H](O)[C@H]2OP(=O)(O)O)c(=O)n1 [2′-CMP]
- inhibition of α-2,6-sialyltransferase [1]: 40%

B1: Δ108 hST6Gal-I: soluble human β-galactoside-α-2,6-sialyltransferase I variant lacking N-terminal amino acids from position 1 to 108 (protein)
chain: LQKIWKNYLSMNKYKVSYKGPGPGIKFSAEALRCHLRDHVNVSMVEVTDFPFNTSEWEGYLPKESIRTKAGPWGRCAVVSSAGSLKSSQLGREIDDHDAVLRFNGAPTANFQQDVGTKTTIRLMNSQLVTTEKRFLKDSLYNEGILIVWDPSVYHSDIPKWYQNPDYNFFNNYKTYRKLHPNQPFYILKPQMPWELWDILQEISPEEIQPNPPSSGMLGIIIMMTLCDQVDIYEFLPSKRKTDVCYYYQKFFDSACTMGAYHPLLYEKNLVKHLNQGTDEDIYLLGKATLPGFRTIHC
modifications: delta108 truncation variant of hST6Gal-I
- specific activity (asialofetuin): > 600 RFU/pg
- sialidase activity in the presence of CMP (IgG1 MAB G2+2SA): did not show any sialidase activity

B2: Δ89 hST6Gal-I: human β-galactoside-α-2,6-sialyltransferase I variant with truncation deletion of the first 89 N-terminal amino acids (protein)
chain: EASFQVWNKDSSSKNLIPRLQKIWKNYLSMNKYKVSYKGPGPGIKFSAEALRCHLRDHVNVSMVEVTDFPFNTSEWEGYLPKESIRTKAGPWGRCAVVSSAGSLKSSQLGREIDDHDAVLRFNGAPTANFQQDVGTKTTIRLMNSQLVTTEKRFLKDSLYNEGILIVWDPSVYHSDIPKWYQNPDYNFFNNYKTYRKLHPNQPFYILKPQMPWELWDILQEISPEEIQPNPPSSGMLGIIIMMTLCDQVDIYEFLPSKRKTDVCYYYQKFFDSACTMGAYHPLLYEKNLVKHLNQGTDEDIYLLGKATLPGFRTIHC
modifications: delta89 truncation variant of hST6Gal-I
notes: human β-galactoside-α-2,6-sialyltransferase I variant with truncation deletion of the first 89 N-terminal amino acids
- specific activity (asialofetuin): 3.75 nmol/pg/min
- content of the bi-sialylated form G2+2SA (IgG4 MAB; after 2 h of incubation, 37° C., 30 μg enzyme/300 μg IgG4 MAB): 88%
- G2+2SA content (IgG4 MAB; after 7 h of incubation, before CTP addition): 94%
- G2+1SA content (IgG4 MAB; after an incubation of 48 h, 37° C.): 71%
- sialidase activity in the presence of CMP (IgG1 MAB G2+2SA): showed a CMP-dependent sialidase activity
- degradation of G2+2SA without CMP (IgG1 MAB G2+2SA; reaction mixture without CMP, incubation for 46 h): no degradation
- intrinsic sialidase activity in the absence of CMP [2]: no intrinsic sialidase activity
